Measurements: patent US20200339680A1 (Alector, published 2020)

B1: TM-27 (antibody, V domains shown)
VH: QVQLQQSGAELVRPGTSVKVSCKASGYALTNYLIEWVKQRPGQGLEWIGVINPGSGSTKYNEKFKGKATLTADKSSSTAYMQLSSLTSEDSAVYFCARIIYDHDWYFDVWGTGTTVTVSS
VL: QIVLTQSPAIMSASPGEKVTISCSASSSISYMYWYQQKPGSSPKPWIYRTSTLASGVPARFSGSGSGTSYSLTISSMEAEDAATYYCQQYHSYPRTFGGGTKLEIK
B2: TM-25 (antibody, V domains shown)
VH: EVQLVESGGDLVKPGGSLRLSCAASGFTFSGYGMSWIRQTPDKRLEWVATISSGGRYTVYPDSVKGRFTMSRDNVKNTLYLQMSSLKSEDTALYYCARDNFYSYAMDYWGLGTSVTVSA
VL: DIVMTQAAFSNPVTLGTSASISCRSSKSLLHSNGITYLFWYLQKPGQSPQLLIYQMSNLASGVPDRFSSSGSGTDFTLRISRVEAEDVGVYYCAQNLELWTFGGGTKLEIK
B3: TM-23 (antibody, V domains shown)
VH: QVQLQQSGAELIRPGTSVKVSCKASGYAFTNYLIEWVKKRPGQGLEWIGVINPGSGITNYNEKFKGKATLTADKSSSTAYMQLSSLTSEDSAVYFCARSDFITTVVADYWGQGTTVTVSS
VL: DIVVTQTPLSLPVSFGDQVSISCRSSQSLTNYYGNTYLSWYLHKPGQSPQLLIYGISNRFSGVPDRFSGSGSGTDFTLKISTIKPEDLGMYYCLQGTHQPRTFGGGTKLEIK
B4: TM-26 (antibody, V domains shown)
VH: QVQLQQSGAELIRPGTSVKVSCKASGYAFTNYLIEWVKKRPGQGLEWIGVINPGSGITNYNEKFKGKATLTADKSSSTAYMQLSSLTSEDSAVYFCARSDFITTVVADYWGQGTTVTVSS
VL: DIVVTQTPLSLPVSFGDQVSISCRSSQSLTNYYGNTYLSWYLHKPGQSPQLLIYGISNRFSGVPDRFSGSGSGTDFTLKISTIKPEDLGMYYCLQGTHQPRTFGGGTKLEIK
B5: TM-17 (antibody, V domains shown)
VH: QVQLQQSGAELIRPGTSVKVSCKASGYAFTDYLIEWVKQRPGQGLEWIGVINPGSGGTNYNEKFKGKAKLTADKSSSTAYMQLSSLTSEDSAVYFCVRSSYGVYVAYPMDYWGQGTSVTVSS
VL: DIQMTQSPSSLSASLGERVSLTCRASQDIGSNLNWLQQEPDGTIKRLIYATSSLDSGVPKRFSGSRSGSDYSLTISSLESEDFVDYYCLQYASSPRTFGGGTKLEIK
B6: TM-19 (antibody, V domains shown)
VH: DVQLQQSGAELVRPGASVKLSCTASGFNIKDYYMYWVKQRPEQGLEWIGRIDPEDGDTENAPKFRGMATMTADTSSNTAYLQLNSLTSEDTAVYYCTTRIGNLYHVMDYWGHGTSVTVSS
VL: DVLMTQTPLSLPVSLGDQASISCRSSQSIVHSNGNTYLEWYLQKPGQAPKLLIDKVFNRFSGVPDRFSGSGSGTDFTLKISRVEAEDLGVYYCFQGSHVPFTFGSGTKLEIK
B7: TM-35 (antibody, V domains shown)
VH: QVQLQQSGPELVRPGTSVKISCKAPGYTFTRHWMQWVRQRPGQGLEWIGEILPGSNNIYYNEKVKGKATLTVDTSSSTSYMQLSSLTSEDSAVYFCARSLYDYDGVFAYWGQGTLVTVSA
VL: DVLMTQIPLSLPVSLGDQASISCRSSQSIVHRNGNTYLEWYLQKPGQSPKLLIYKVSNRFSGVPDRFSGSGSGTDFTLKISRVEAEDLGVYYCFQGSHVPYTFGGGTKLEIK
B8: TM-22 (antibody, V domains shown)
VH: QVQLQQSGPELVKPGASVKISCKASGYRFTSYYIHWVKQRPGQGLEWIGWIYPGNGITNYNEKFKGKATLTADTSSSTAYMQLSSLTSEDSAVYYCASPYYGIRNCYFDVWGTGTTVTVSS
VL: DVLMTQTPLSLPVSLGDHASISCRSGQSIVHSNGNTYLEWYLQKPGQSPKLLIYKVSNRFSGVPDRFSGSGSGTDFTLKISRVEAEDLGIYYCFQGSHVPWTFGGGTKLEIK
B9: TM-28 (antibody, V domains shown)
VH: EVQLQQSGPVLVKPGPSVKISCMASVFTFNDYYIHWVKQSHGKSLEWIGLVYPYNGGTNYNQNFKGKATLTVDTSSRTAYMELNSLTSEDSAVYYCARSYFSNPIGYWGQGTLVTVSE
VL: DIVMTQSPSSLSVSVGEKVTVSCKSSQSLLNSGNQKNYLAWYQQKPGQPPKLLIYGASTRESGVPDRFTGSGSGTDFTLTISSVQAEDLAVYYCQNDHSYPLTFGAGTKLELK
B10: TM-33 (antibody, V domains shown)
VH: EFQLQQSGPELVKPGASVKISCKASGYSFTDYNMNWVKQSNGKSLEWIGVINPNYGTTSYNQKFKGKATLTVDQSSSTAYMQLNSLTSEDSAVYYCASSYWGQGTLVTVSA
VL: DIVMTQSQKFMSTTVGDRVSITCKASQNVGTAVAWYQQKPGQSPKLLIYSASNRYTGVPDRFTGSGSGTDFTLTISNMQSEDLADYFCQQYSSYPYTFGGGTKLEIK
notes: mouse IgG (hybridoma)
B11: TM-18 (antibody, V domains shown)
VH: EVRLQQSGPELVKPGASVKISCKTSGYTFTDYYMNWVKQSHGKSLEWIVNINPNNGDAFYNQKFKGKATLTVDKSSNTAYLDLRSLTSEDSAVYYCAREGQLRLRRVYAMDYWGQGTSVTVSS
VL: DIVLAQSPASLAVSLGQRATISCRASKSVSISVYTYVHWYQQKPGQPPKLLIYLASNLESGVPARFSGSGSGTDFTLNIHPVEEEDAATYYCQHSRELPYTFGGGTKLEIK
B12: TM-21 (antibody, V domains shown)
VH: EVQLVESGGGLVKPGGSLKLSCAASGFTFSNYAMSWVRETPEKRLEWVAFISDGGGYIYYADNVKDRFTISRDNAKNNLYLQMRHLKSEDTAMYYCARDGGTGFTYWGQGTLVTVSV
VL: DIVMTQAAFSNPVTLGTSASISCRSSKSLLHSNGITYLFWYLQKPGQSPQLLIYQMSNLASGVPDRFSSSGSGTDFTLRISRVEAEDVGVYYCVQNLELPYTFGGGTKLEIK
B13: TM-29 (antibody, V domains shown)
VH: QVQLRQSGAELVRPGASVKLSCKASGYTFTDYYINWVKQRPGQGLEWIARIYPGSGYTYYNEKFKGKATLTAEGSSNTAYMQLSSLTSEDSAVYFCANHYTNPFAYWGQGTLVTVSA
VL: DIVMTQAAFSNPVTLGTSASISCRSSKSLLHYNGITYLYWYLQKPGQSPQLLIYQMSNLASGVPDRFSSSGSGTDFTLRISRVEAEDVGVYYCAQNLELPYTFGGGTKLEIK

How the values were obtained:
[1] = target: T1, human TMEM106B (human, UniProt Q9NUM4 2-274); experiment: FACS A549;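 note: flow cytometry of cells incubated on ice for 1 h with hybridoma supernatant or purified antibody at 10 µg/mL, dead propidium iodide-positive cells gated out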
T1 construct: full-length, transiently expressed on HEK293 cells, or natively expressed on HeLa, U251 and A549 cells (the cell is named under assay); also the source of the Pepscan peptides; also called huTMEM106B; huTMEM
Experimental: (§1) All cells were cultured in either T75 or T150 flasks. […] The enzyme was quenched by addition of fresh media, and the cells were then distributed into 96-well plates for FACS analysis.
(§2) FACS analysis was performed as follows. Each cell type was aliquoted in 96-well round bottom plates (2×10^5 cells per well), washed once with FACS buffer (PBS+2% FBS+1 mM EDTA), and incubated with 50 μL of hybridoma supernatant or purified antibody (10 μg/ml in FACS buffer) on ice for 1 hour. […] Following this secondary incubation, the cells were again washed 2× with ice-cold FACS buffer and resuspended in a final volume of 50 μL of FACS buffer+0.25 μl/well propidium iodide (Fisher Scientific #4BDB556463). Analysis was performed on a FACSCanto system (BD Biosciences) or iQue (Intellicyt), with sort gates drawn to exclude dead (i.e., propidium iodide positive) cells.

[2] = target: T1, human TMEM106B; experiment: FACS HeLa
[3] = target: T1, human TMEM106B; experiment: FACS U251
Experimental: as §1, §2

[4] = target: T2, mouse TMEM106B (mouse, UniProt Q80X71 2-275); experiment: FACS Neuro2a;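 note: flow cytometry of antibody binding to cells: hybridoma supernatant or purified antibody at 10 µg/ml, 1 h on ice, secondary detection, propidium iodide–positive dead cells gated out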
T2 construct: transiently expressed on HEK293 cells, or native on mouse Neuro2a cells; also called moTMEM106B; murine TMEM106B

[5] = target: T1, human TMEM106B; experiment: FACS A549 1 ug/ml
Experimental: (§3) Purified anti-TMEM106B antibodies were evaluated for their binding affinity to various TMEM106B-expressing cell lines including HEK293 transiently transfected with human/cyno/mouse TMEM106B, as well as HeLa cells and A549 cells. Antibodies tested for this experiment were mouse IgGs purified from hybridoma supernatant. Affinity binding to cells was determined as follows. Briefly, 1×10\hat{ }5 cells were aliquoted per well in 96-well round bottom plates and incubated with 50 μL of purified anti-TMEM106B antibody at various concentrations (10× dilutions starting at 10 μg/ml) in FACS buffer (PBS+2% FBS+1 mM EDTA). […] Sorting was performed on a iQue (Intellicyt), with sort gates drawn to exclude dead (propidium iodide+) cells. Binding data was analyzed using median fluorescent intensity (MFI) and graphed in Prism. Values presented are MFI.

[6] = target: T1, human TMEM106B; experiment: FACS A549 10 ug/ml
Experimental: as §3

[7] = target: T1, human TMEM106B; experiment: FACS HEK+huTMEM 10 ug/ml;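 note: flow cytometric binding of purified mouse IgG antibodies to HEK293 cells transiently expressing human TMEM106B, read as median fluorescence intensity on live cells with propidium iodide-positive cells excluded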
[8] = target: T1, human TMEM106B; experiment: FACS HEK+huTMEM 0.1 ug/ml;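 note: flow cytometry binding of purified mouse IgG antibodies to HEK293 cells transiently expressing TMEM106B, read as median fluorescence intensity on live cells (propidium iodide negative gating)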
Experimental: as §3

[9] = target: T1, human TMEM106B; experiment: FACS HEK+huTMEM 1.0 ug/ml;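 note: binding of purified mouse IgG antibodies to HEK293 cells transiently expressing human TMEM106B, read by flow cytometry as median fluorescence intensity of live, propidium iodide-negative cells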
Experimental: as §3

[10] = target: T1, human TMEM106B; experiment: FACS HEK+huTMEM 0.1 ug/ml (2nd column so headed);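 note: flow cytometry binding of purified anti-TMEM106B mouse IgG to HEK293 cells transiently transfected with TMEM106B, read as median fluorescence intensity on live (propidium iodide-negative) cells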
Experimental: as §3

Binder	MFI [1] [MFI]	MFI [2] [MFI]	MFI [3] [MFI]	MFI [4] [MFI]	MFI [5] [MFI]	MFI [6] [MFI]	MFI [7] [MFI]	MFI [8] [MFI]	MFI [9] [MFI]	MFI [10] [MFI]
B1	1930	2960	1320	1580	431	622	4140	1700	3040	744
B2	1700	2560	1110	354	4530	7000	60300	32800	64700	4310
B3	1090	308	278	333	398	757	12400	2410	3900	1100
B4	952	384	300	324	380	509	3850	1960	3340	1000
B5	953	437	305	385	379	425	3960	1910	2620	1150
B6	1820	2430	878	2140	3640	4960	79000	29800	66800	3340
B7	982	241	370	181	3270	4200	48700	22600	55400	4080
B8	1570	408	313	400	399	478	3580	833	2100	500
B9	2000	2790	998	2740	2630	4350	64800	19800	66400	3340
B10	298	148	202	233	366	514	12100	1750	5630	651
B11	1490	1920	874	1930	2620	5190	71700	10600	67300	1740
B12	1030	1200	672	706	2030	4230	69400	15600	69400	2350
B13	1410	1650	730	1480	2480	4200	61200	24400	63300	4050
